Measured values as given in PMC9482650, “Quantitative fragmentomics allow affinity mapping of interactomes” (Nature Communications, 2022).

How the values were obtained:
Assay in all cases: holdup assay
Parameters in all cases: key: below the threshold = too weak to quantify, mostly under pKd 3.1 to 4
Details in all cases: plain residues with an end cap or a label only (N-terminal biotin on a linker: gsgsgs; C-terminal amide)
[1] = target: ARHGEF12, Q9NZN5-2
[2] = target: T1, DFNB31_1, Q9P202
T1 sequence (Q9P202 135-233, limits assumed, looked up): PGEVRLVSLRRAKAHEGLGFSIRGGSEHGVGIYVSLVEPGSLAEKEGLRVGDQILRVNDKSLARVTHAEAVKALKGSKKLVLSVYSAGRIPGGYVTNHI

[3] = target: DLG1_2, Q12959
[4] = target: DLG4_1, P78352
[5] = target: T2, GRIP1_3, Q9Y3R0
T2 sequence (Q9Y3R0 247-346, limits assumed, looked up): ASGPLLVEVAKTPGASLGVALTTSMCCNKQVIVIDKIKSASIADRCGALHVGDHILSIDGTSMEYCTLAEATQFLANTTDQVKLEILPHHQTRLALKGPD

[6] = target: GRIP2_4, Q9C0E4
[7] = target: T3, HTRA4, P83105
T3 sequence (P83105 378-476, limits assumed, looked up): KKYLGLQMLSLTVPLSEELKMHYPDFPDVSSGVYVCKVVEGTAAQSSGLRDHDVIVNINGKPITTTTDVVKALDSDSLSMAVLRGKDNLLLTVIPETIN

[8] = target: IL16_1, Q14005
[9] = target: Inadl_2, Q8NI35
[10] = target: Inadl_5, Q8NI35
[11] = target: LAP2, Q96RT1
[12] = target: T4, LIN7A, O14910
T4 sequence (O14910 103-200, limits assumed, looked up): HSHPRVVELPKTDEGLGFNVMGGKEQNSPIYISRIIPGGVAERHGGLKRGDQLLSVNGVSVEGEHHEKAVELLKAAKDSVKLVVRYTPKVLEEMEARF

[13] = target: T5, LRRC7, Q96NW7
T5 sequence (Q96NW7 1440-1537, limits assumed, looked up): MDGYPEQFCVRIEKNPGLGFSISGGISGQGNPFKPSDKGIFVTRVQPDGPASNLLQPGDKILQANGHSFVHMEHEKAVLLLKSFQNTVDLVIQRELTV

[14] = target: MAGI1_2, Q96QZ7
[15] = target: MAST2, Q6P0Q8
[16] = target: T6, MPP7, Q5T2T1
T6 sequence (Q5T2T1 134-230, limits assumed, looked up): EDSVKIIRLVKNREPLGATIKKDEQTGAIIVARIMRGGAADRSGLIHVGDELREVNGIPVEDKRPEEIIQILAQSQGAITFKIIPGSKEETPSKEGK

[17] = target: T7, NHERF3_1, Q5T2W1
T7 sequence (Q5T2W1 4-100, limits assumed, looked up): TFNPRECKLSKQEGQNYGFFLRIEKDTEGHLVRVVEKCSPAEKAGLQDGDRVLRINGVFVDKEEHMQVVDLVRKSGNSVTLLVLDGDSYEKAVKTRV

[18] = target: T8, NHERF3_4, Q5T2W1
T8 sequence (Q5T2W1 373-468, limits assumed, looked up): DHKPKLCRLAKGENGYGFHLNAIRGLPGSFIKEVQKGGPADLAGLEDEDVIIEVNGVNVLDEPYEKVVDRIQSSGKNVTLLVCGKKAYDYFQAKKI

[19] = target: PARD3_3, Q8TEW0
[20] = target: T9, PCLO, Q9Y6V0
T9 sequence (Q9Y6V0 4491-4600, limits assumed, looked up): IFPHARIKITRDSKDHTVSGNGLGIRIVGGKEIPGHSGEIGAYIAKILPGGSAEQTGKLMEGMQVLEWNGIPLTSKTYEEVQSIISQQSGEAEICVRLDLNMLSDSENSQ

[21] = target: T10, PDZRN3_1, Q9UPQ7
T10 sequence (Q9UPQ7 244-349, limits assumed, looked up): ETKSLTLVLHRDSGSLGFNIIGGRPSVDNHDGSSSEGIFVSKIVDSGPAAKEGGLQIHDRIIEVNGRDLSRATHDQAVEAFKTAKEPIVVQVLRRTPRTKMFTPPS

[22] = target: PICK1, Q9NRD5
[23] = target: T11, RADIL, Q96JH8
T11 sequence (Q96JH8 971-1071, limits assumed, looked up): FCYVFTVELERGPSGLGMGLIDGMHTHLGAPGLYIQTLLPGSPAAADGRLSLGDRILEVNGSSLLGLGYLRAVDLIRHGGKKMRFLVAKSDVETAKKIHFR

[24] = target: T12, RHPN1, Q8TCX5
T12 sequence (Q8TCX5 508-602, limits assumed, looked up): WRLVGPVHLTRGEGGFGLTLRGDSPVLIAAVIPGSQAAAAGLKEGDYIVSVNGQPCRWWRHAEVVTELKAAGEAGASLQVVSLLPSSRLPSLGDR

GRIP2_4, Q9C0E4, sequence (Q9C0E4 446-548): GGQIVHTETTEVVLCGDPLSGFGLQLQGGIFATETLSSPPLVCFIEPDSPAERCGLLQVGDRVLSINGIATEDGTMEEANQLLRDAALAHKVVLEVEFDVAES
PARD3_3, Q8TEW0, sequence (Q8TEW0 582-685): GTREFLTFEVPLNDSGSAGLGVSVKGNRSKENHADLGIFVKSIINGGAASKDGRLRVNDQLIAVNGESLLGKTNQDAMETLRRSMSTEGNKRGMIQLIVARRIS
LAP2, Q96RT1, sequence (Q96RT1 other isoform, or with tags, fused parts or gaps): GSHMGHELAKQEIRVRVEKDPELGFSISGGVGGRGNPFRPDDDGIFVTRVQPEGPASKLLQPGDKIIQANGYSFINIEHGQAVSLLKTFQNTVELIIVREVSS
DLG4_1, P78352, sequence (P78352 62-152): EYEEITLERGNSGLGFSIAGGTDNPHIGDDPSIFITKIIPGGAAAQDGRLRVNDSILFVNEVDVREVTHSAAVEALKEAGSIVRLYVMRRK
ARHGEF12, Q9NZN5-2, sequence (Q9NZN5 other isoform, or with tags, fused parts or gaps): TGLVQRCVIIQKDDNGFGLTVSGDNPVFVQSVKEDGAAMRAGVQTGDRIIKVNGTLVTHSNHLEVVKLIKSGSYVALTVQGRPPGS
MAGI1_2, Q96QZ7, sequence (Q96QZ7 456-580): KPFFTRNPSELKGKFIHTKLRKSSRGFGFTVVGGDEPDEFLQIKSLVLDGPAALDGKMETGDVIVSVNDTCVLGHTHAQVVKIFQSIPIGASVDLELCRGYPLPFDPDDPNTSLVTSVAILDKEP
Inadl_5, Q8NI35, sequence (Q8NI35 673-780): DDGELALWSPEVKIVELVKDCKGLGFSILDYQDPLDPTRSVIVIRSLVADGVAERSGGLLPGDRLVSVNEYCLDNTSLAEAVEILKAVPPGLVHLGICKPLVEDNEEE
DLG1_2, Q12959, sequence (Q12959 314-412): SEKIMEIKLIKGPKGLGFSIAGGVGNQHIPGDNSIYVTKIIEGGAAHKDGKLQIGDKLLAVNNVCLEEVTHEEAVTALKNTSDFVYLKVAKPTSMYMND
MAST2, Q6P0Q8, sequence (Q6P0Q8 1099-1202): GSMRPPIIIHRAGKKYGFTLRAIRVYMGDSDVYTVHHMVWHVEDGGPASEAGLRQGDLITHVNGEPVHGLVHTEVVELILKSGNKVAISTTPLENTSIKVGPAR
PICK1, Q9NRD5, sequence (Q9NRD5 17-115): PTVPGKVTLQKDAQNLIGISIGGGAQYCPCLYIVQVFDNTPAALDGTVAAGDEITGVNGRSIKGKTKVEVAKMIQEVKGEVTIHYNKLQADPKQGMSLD
IL16_1, Q14005, sequence (Q14005 210-306): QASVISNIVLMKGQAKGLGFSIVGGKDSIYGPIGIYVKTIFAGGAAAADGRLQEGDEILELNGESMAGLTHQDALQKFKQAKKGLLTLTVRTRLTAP
Inadl_2, Q8NI35, sequence (Q8NI35 238-335): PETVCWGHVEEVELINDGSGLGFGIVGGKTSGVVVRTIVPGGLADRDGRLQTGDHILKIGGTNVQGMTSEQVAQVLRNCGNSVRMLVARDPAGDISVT

- pKd [1]: below the threshold
- pKd [2]: below the threshold
- pKd [3]: below the threshold
- pKd [4]: below the threshold
- pKd [5]: below the threshold
- pKd [6]: below the threshold
- pKd [7]: below the threshold
- pKd [8]: below the threshold
- pKd [9]: below the threshold
- pKd [10]: below the threshold
- pKd [11]: 3.7
- pKd [12]: below the threshold
- pKd [13]: below the threshold
- pKd [14]: below the threshold
- pKd [15]: below the threshold
- pKd [16]: below the threshold
- pKd [17]: below the threshold
- pKd [18]: below the threshold
- pKd [19]: below the threshold
- pKd [20]: below the threshold
- pKd [21]: below the threshold
- pKd [22]: below the threshold
- pKd [23]: below the threshold
- pKd [24]: below the threshold
B1: DFNB31_int, Q9P202 (peptide)
chain: VSVDDVRSTSQGLSSY
